Results taken from patent US20240002500A1 (GUANGDONG FAPON BIOPHARMA, published 2024).

T1: human Tigit extracellular domain recombinant protein hTigit-his (self-produced) (human, UniProt Q495A1 22-141)
T1 construct: extracellular domain; Self-produced; used in the KD analysis of Embodiment 4; also called human Tigit recombinant protein; not shown: his tag
T1 sequence (looked up): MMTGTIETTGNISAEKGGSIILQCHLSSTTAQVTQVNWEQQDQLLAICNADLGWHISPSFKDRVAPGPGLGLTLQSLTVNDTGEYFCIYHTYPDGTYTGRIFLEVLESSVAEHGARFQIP

T2: human Tigit extracellular domain recombinant protein hTigit-his (Acrobiosystem, Cat.TIT-H2H3) (human, UniProt Q495A1 22-141)
T2 construct: extracellular domain; Bought; not shown: his tag
T2 sequence (looked up): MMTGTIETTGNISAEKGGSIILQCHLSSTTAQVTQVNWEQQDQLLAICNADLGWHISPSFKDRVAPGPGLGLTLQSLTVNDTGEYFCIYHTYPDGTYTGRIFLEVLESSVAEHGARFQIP

T3: full-length human TIGIT on cells (human, UniProt Q495A1 22-244)
T3 construct: whole, on cells; The same protein is used for CHO-hTIGIT, PBMC and NK92-hTIGIT; the cells are named under assay; also called CHO-hTIGIT; hTIGIT
T3 sequence (looked up): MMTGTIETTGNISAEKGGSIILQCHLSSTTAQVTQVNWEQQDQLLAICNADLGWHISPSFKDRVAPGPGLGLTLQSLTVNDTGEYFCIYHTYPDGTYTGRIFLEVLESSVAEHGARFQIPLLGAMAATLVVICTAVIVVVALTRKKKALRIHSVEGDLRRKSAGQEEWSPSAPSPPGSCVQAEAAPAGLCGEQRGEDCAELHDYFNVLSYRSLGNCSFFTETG

T4: hTIGIT-hFc (human, UniProt Q495A1 22-141)
T4 construct: also called antigen protein hTIGIT-hFc; human TIGIT recombinant protein carrying a human Fc tag; not shown: human Fc tag
T4 sequence (looked up): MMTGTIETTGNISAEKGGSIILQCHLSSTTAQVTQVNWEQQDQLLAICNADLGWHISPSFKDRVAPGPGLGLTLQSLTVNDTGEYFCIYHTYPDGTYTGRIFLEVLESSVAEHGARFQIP

B1: 14Tigit-1-1 mouse monoclonal antibody (antibody, V domains shown)
VH: DVQLQESGPGLVKPSQSLSLTCTVTGYSITSDYAWNWIRQFPGNKLEWMGYISYSGSTRSNPSLKSRISITRDTSKNQFFLQLNSMTAEDTATYYCGGWEVRNYYAMDYWGQGTSVTVSS
VL: DIVMTQSHKFMSTSVGDRVSITCKASQHVSTAVAWYQQKPGQSPKLLIYSASYRYTGVPDRFTGSGSGTDFTFTISSVQAEDLAVYYCQQHYNTPWTFGGGTKLEIKR
notes: Mouse monoclonal antibody from hybridoma
B2: Tigit-5 mouse monoclonal antibody (antibody, V domains shown)
VH: QVQLQQPGAELVRPGASVKLSCKASGYSFTSYWMNWVKQRPGQGLEWIGMIRPSDSETRLNQMFKDKATLTVDKSSSTAYMQLSSPTSDDSAVYYCAGIHDYGHGAYWGQGTLVTVSA
VL: DIQMIQSPASLSVSVGETVTITCRASENIYSNLAWYQQKQGKSPQLLVYAASHLPDGVPSRFSGSGSGTQYSLKINSLQSEDFGSYYCQHFWGTPRTFGGGTKLEIKR
notes: as for B1
B3: 3Tigit-16 mouse monoclonal antibody (antibody, V domains shown)
VH: EVQLQQSGPELVKPGASVKMSCKASGFTFTDYFMDWVKQSRGASFEWIGRLNPNNGRTSYNQKFKGKATLTVDKSSSTAYMELNSLTSEDSAVYYCARGDLGRWYFDVWGAGTTVTVSS
VL: QIVLTQSPAIMSASPGEKVTMTCSASSSVSYMHWYQQKSGTSPKRWIYDTSKLASGVPTRFSGSGSGTSYSLTISSMEAEDAASYFCQQWSSNSLTFGAGTKLELKR
notes: as for B1
B4: 3Tigit-29 mouse monoclonal antibody (antibody, V domains shown)
VH: EVQLQQSGPELVKPGASVKISCKASGYTFTDYNMHWVKQSLGKSLEWIGYVNSFNGNTGYSQKFKSKVTLTVDRSSRTAYMDLRSLTSEDSAVFYCARSSRGGFAYWGQGTLVTVSA
VL: QIVLTQSPAIMSASPGEKVTMTCSASSSVSYMHWYQQKSGTSPKRWIYDTSKLASGVPARFSGSVSGTSYSLTISSMEAEDAATYYCQQWSSNSLTFGAGTKLELKR
notes: as for B1
B5: 3Tigit-12 mouse monoclonal antibody (antibody, V domains shown)
VH: QVQLQQSGAELVRPGTSVKMSCKAAGYTFTNYWIGWVKQRPGHGLEWIGDIYPGGGYTNYDEKFKGKATLTADTSSRTAYMQLSSLTSEDSAIYHCVNGGYGSTYGYFDVWGAGTTVTVSS
VL: DIVMSQSPSSLPVSVGEKVTMSCKSSQSLLFSSDQKNYLAWYQQKPGQSPKLLIYWASTRESGVPDRLTGSGSGTDFTLTISSVKAEDLAVYYCQQYHKYPFTFGGGTKLEIKR
notes: as for B1

Tests used:
[1] = target: T1, human Tigit extracellular domain …; assay: BLI (ForteBIO QKe), hTigit-his on anti-Penta-HIS sensor, antibody in solution
Experimental: Binding kinetic constant analysis was performed on an anti-hTigit antibody and hTigit with an MD ForteBIO QKe platform.

[2] = target: T2, human Tigit extracellular domain …; assay: BLI epitope binning (ForteBIO QKe), hTigit-his on anti-Penta-HIS sensor; competitor R0223
Experimental: (§1) Epitope competition analysis was performed on an anti-human TIGIT antibody with an MD ForteBIO QKe platform. An experimental method included: a human Tigit extracellular domain recombinant protein hTigit-his (Acrobiosystem, Cat.TIT-H2H3, lot-1336-76GF1-F9) carrying a his tag was diluted with an equilibration buffer (1×PBS+0.02% Tween 20), until the final concentration was 1.5 μg/ml. The anti-human Tigit antibody was diluted with the equilibration buffer (1×PBS+0.02% Tween 20), the final concentration being 5 μg/ml. After an anti-Penta-HIS biosensor (ForteBIO, Cat. 18-5122) was fully hydrated, first the hTigit-his recombinant protein was solidified for 180 seconds, then equilibrated for 30 seconds, and bound to the first anti-human Tigit antibody for 180 seconds, then equilibrated for 30 seconds, and then bound to the second anti-human Tigit antibody, binding time being 300 seconds. The whole reaction was performed at 25° C. and 1000 rpm; and finally, Octet analysis software was used to perform epitope binning analysis.

[3] = target: T3, full-length human TIGIT on cells; assay: FACS titration on CHO-hTIGIT cells; table under the plot, unit taken from the x axis Log[nM]
Experimental: The CHO-engineered cells CHO-hTIGIT cells recombinantly expressing full-length human TIGIT to be detected were counted, centrifuged at 300 g for 5 min, resuspended in an FCM buffer and cell density was adjusted to 4E+06 cell/mL for later use. A sample to be detected (including a positive control antibody and a mouse monoclonal antibody) was diluted with the FCM buffer to 20 μg/mL, and then the FCM buffer was used to perform 3× serial dilutions of 12 concentration points; and the isotype control antibody was diluted with the FCM buffer to 20 μg/mL. According to an experimental design, in each well, 50 μL of the antibody and 50 μL of the cell (the amount of each cell added into a 96-well V-shaped plate being 2E+05 cells/well) were respectively added in the 96-well V-shaped plate; and incubation in dark was performed on ice for 30 min. Centrifugation (300 g/5 min) was performed; supernatant was discarded; 200 μL of the FCM buffer was added for washing once; centrifugation (300 g/5 min) was performed; and the supernatant was discarded. […] Centrifugation (300 g/5 min) was performed; supernatant was discarded; 200 μL of the FCM buffer was added once for washing once; centrifugation (300 g/5 min) was performed; and the supernatant was discarded. 100 μL of the 1×PBS was added for resuspending, and on-machine detection was performed.

[4] = target: T2, human Tigit extracellular domain …; assay: BLI epitope binning (ForteBIO QKe), hTigit-his on anti-Penta-HIS sensor; competitor R0300
Experimental: as §1

hTIGIT-hFc = target: T4, hTIGIT-hFc; assay: FACS blocking on U2-OS cells; second row of the table; unit from the y axis
Experimental: U2-OS cells to be detected (human osteosarcoma cells, naturally and highly expressing PVR and CD112 by means of detection) were counted; centrifugated at 300 g for 5 min; resuspended with an FCM buffer; and cell density was adjusted to 4E+06 cell/mL for later use. […] According to an experimental design, in each well, 50 μL of the antigen protein and 50 μL of the cell (the volume of each cell added into a 96-well V-shaped plate being 2E+05 cell/well) were respectively added in the 96-well V-shaped plate; and incubation was performed in dark on ice for 30 min. Centrifugation (300 g/5 min) was performed; supernatant was discarded; 200 μL of the FCM buffer was added for washing once; centrifugation (300 g/5 min) was performed; and the supernatant was discarded. The antibody was added to the 96-well V-shaped plate (in 100 μL/well); and incubation was performed in dark on ice for 30 min. Centrifugation (300 g/5 min) was performed; supernatant was discarded; 200 μL of the FCM buffer was added for washing once; centrifugation (300 g/5 min) was performed; and the supernatant was discarded. Secondary antibodies (APC anti-human IgG Fc, 1:500 dilution) were added to the 96-well V-shaped plate (in 100 μL/well); and incubation was performed in dark on ice for 30 min. Centrifugation (300 g/5 min) was performed; supernatant was discarded; 200 μL of the FCM buffer was added for washing once; centrifugation (300 g/5 min) was performed; and the supernatant was discarded. 100 μL of the 1×PBS was added for resuspending, and on-machine detection was performed.

Binder | Kd [1] | epitope binning signal (name and unit not given) [2] | EC50 [3] | epitope binning signal (name and unit not given) [4] | Span (row head not given) (hTIGIT-hFc)
B1 | 0.172 nM | – | – | – | –
B2 | 0.0605 nM | 0.0443 | 0.256 nM | 0.668 | –
B3 | 0.202 nM | 0.008 | 0.294 nM | 0.0157 | 580 MFI-APC
B4 | 0.155 nM | -0.0018 | 0.31 nM | 0.0254 | 585 MFI-APC
B5 | 0.119 nM | 0.01 | – | 0.0196 | 555 MFI-APC
